Results on six proteins are retold here after PMC5013595.

B1: interferon-γ receptor 2 (IFNγR2): Endo H (protein)
parent chain: MRPTLLWSLLLLLGVFAAAAAAPPDPLSQLPAPQHPKIRLYNAEQVLSWEPVALSNSTRPVVYQVQFKYTDSKWFTADIMSIGVNCTQITATECDFTAASPSAGFPMDFNVTLRLRAELGALHSAWVTMPWFQHYRNVTVGPPENIEVTPGEGSLIIRFSSPFDIADTSTAFFCYYVHYWEKGGIQQVKGPFRSNSISLDNLKPSRVYCLQVQAQLLWNKSNIFRVGHLSNISCYETMADASTELQQVILISVGTFSLLSVLAGACFFLVLKYRGLIKYWFHTPPSIPLQIEEYLKDPTQPILEALDKDSSPKDDVWDSVSIISFPEKEQEDVLQTL
B2: interferon-γ receptor 2 (IFNγR2): PNGase F (protein)
parent chain: B1 parent chain
B3: interferon-γ receptor 2 (IFNγR2): N110Q (protein)
parent chain: B1 parent chain
B4: interferon-γ receptor 2 (IFNγR2): N137Q (protein)
parent chain: B1 parent chain
B5: interferon-γ receptor 2 (IFNγR2): N56Q, N110Q, N137Q and N231Q (protein)
parent chain: B1 parent chain
B6: interferon-γ receptor 2 (IFNγR2): N231Q (protein)
parent chain: B1 parent chain

One series can be described thus: size-exclusion chromatography. The settings on record: glycan lost; control: glycosylated IFNγR2.
With B1, the oligomerisation result is on record as “no change”.
The same measure, in the same setting: with B2 the entry was “increases”.

The nature of another series: secretion into S2 culture medium. The settings on record: glycan lost; control: wild type.
As to B3, the expression_or_secretion result is “abolishes”.
Still for that read-out and setting: the value for B4 was “abolishes”; that for B5 was “abolishes”; that for B6 was “abolishes”.
